T1: NH2-terminal GST-p27^Kip1
T1 chain: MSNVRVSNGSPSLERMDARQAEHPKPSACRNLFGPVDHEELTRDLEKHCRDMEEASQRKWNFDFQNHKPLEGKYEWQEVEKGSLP

T2: p57^Kip2 as used in the in vitro phosphorylation assay
T2 sequence (P49918 1-316, species assumed, looked up): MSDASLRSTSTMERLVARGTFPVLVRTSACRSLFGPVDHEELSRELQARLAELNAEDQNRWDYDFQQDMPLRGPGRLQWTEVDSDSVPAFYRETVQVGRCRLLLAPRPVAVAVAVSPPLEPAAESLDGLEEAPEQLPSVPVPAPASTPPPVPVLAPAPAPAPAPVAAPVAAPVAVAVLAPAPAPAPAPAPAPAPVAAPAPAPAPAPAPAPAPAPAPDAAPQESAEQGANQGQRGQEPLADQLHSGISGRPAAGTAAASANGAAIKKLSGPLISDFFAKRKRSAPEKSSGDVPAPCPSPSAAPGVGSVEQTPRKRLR

B1: pLAM5′ (human laminC/GAL4 DNA binding domain) (other, UniProt P04386 1-147, looked up)
chain: MKLLSSIEQACDICRLKKLKCSKEKPKCAKCLKNNWECRYSPKTKRSPLTRAHLTEVESRLERLEQLFLLIFPREDLDMILKMDSLQDIKALLTGLFVQDNVNKDAVTDRLASVETDMPLTLRQHRISATSSSEESSNKGQRQLTVSSEEVVSREVSGIKAAYEAELGDARKTLDSVAKERARLQLELSKVREEFKELKARNTKKEGDLIAAQARLKDLEALLNSKEAALSTALSEKRTLEGELHDLRGQVAKLEAALGEAKKQLQDEMLRRVDAENRLQTMKEELDFQKNIYSEELRETKRRHETRLVEID
notes: Bought control plasmid (Clontech)
B2: in vitro translated hKIS from pcDNA3.1/His ([35S]-methionine-labeled or unlabeled, epitope-tagged) (protein)
chain: MAGSGCAWGAEPPRFLEAFGRLWQVQSRLGSGSSASVYRVRCCGNPGSPPGALKQFLPPGTTGAAASAAEYGFRKERAALEQLQGHRNIVTLYGVFTIHFSPNVPSRCLLLELLDVSVSELLLYSSHQGCSMWMIQHCARDVLEALAFLHHEGYVHADLKPRNILWSAENECFKLIDFGLSFKEGNQDVKYIQTDGYRAPEAELQNCLAQAGLQSDTECTSAVDLWSLGIILLEMFSGMKLKHTVRSQEWKANSSAIIDHIFASKAVVNAAIPAYHLRDLIKSMLHDDPSRRIPAEMALCSPFFSIPFAPHIEDLVMLPTPVLRLLNVLDDDYLGNEEEYEDVVEDVKEECQKYGPVVSLLVPKENPGRGQVFVEYANAGDSKAAQKLLTGRMFDGKFVVATFYPLSAYKRGYLYQTLL
B3: hKIS (human KIS), clone C21, fused to the GAL4 activating domain (enzyme, not shown: large carriers)
chain: B2 chain
notes: Prey of the yeast two-hybrid assay; also called the clones

Experiments:
[1] = target: B3; assay: yeast two-hybrid, beta-galactosidase staining
[2] = target: NH2-terminal GST-p27^Kip1 with serine 10 to alanine (pGSTp27^Kip1 NH2S1OM)
[3] = target: T1, NH2-terminal GST-p27^Kip1
[4] = target: p16^Ink4 as used in the in vitro phosphorylation assay
[5] = target: p21^Cip1 as used in the in vitro phosphorylation assay
[6] = target: T2, p57^Kip2 as used in the in vitro …
[7] = target: purified recombinant p27^Kip1 (bacterial-produced)
[8] = target: T3, pVA3 (murine p53/GAL4 DNA binding domain) (murine, UniProt P04386 1-147; P02340 72-390); assay: yeast two-hybrid, beta-galactosidase staining
T3 construct: Bought control plasmid (Clontech)

B1
binding result [1]: no binding

B2
in vitro phosphorylation assay [2]: mutation of serine 10 to alanine (S10A) abolished phosphorylation of GST-p27^Kip1 | in vitro phosphorylation assay [3]: phosphorylation of GST-p27^Kip1 was detected in the NH2.terminal region of the protein | in vitro phosphorylation in the presence of ^32P-ATP [4]: hKIS did not phosphorylate p57^Kip2, p21^Cip1 or p16^Ink4 | in vitro phosphorylation in the presence of ^32P-ATP [5]: hKIS did not phosphorylate p57^Kip2, p21^Cip1 or p16^Ink4 | in vitro phosphorylation in the presence of ^32P-ATP [6]: hKIS did not phosphorylate p57^Kip2, p21^Cip1 or p16^Ink4 | in vitro phosphorylation in the presence of ^32P-ATP [7]: hKIS readily phosphorylated bacterial-produced p27^Kip1

B3
binding result [8]: no binding
